Each block holds one substance with its values, some of them ahead of it.
Key:
[1] = target: GPI-YFP, a fusion protein containing the total sequence of YFP fused to a glycosylphosphatidylinositol (GPI)-membrane attachment signal; assay: cross-linking; intact CHO-K1 cells, 2 mM membrane-impermeable BS3, 4 °C, 45 min, quenched with 50 mM glycine; SDS-PAGE and Western blot
[2] = target: full-length human Neu3 tagged at the C-terminus with a c-Myc epitope (human); assay: non-reducing SDS-PAGE with Western blot; total homogenates of NEU3-transfected CHO-K1 cells separated by SDS-PAGE with or without 5% beta-mercaptoethanol; blotted with anti-Neu3 antibody
[3] = target: caveolin-1 (Chinese hamster (endogenous in CHO-K1)); assay: cross-linking; intact CHO-K1 cells, 0.5 mM membrane-permeable DSP, room temperature, 45 min, quenched with 50 mM glycine; SDS-PAGE and Western blot; cross-link reversed by beta-mercaptoethanol

- stoichiometry N [1]: 2
Substance: GPI-YFP, a fusion protein containing the total sequence of YFP fused to a glycosylphosphatidylinositol (GPI)-membrane attachment signal

- percent of the total enzyme in the ~125 kDa band [2]: 25%
- stoichiometry N [2]: 2
Substance: full-length human Neu3 tagged at the C-terminus with a c-Myc epitope (enzyme)

- stoichiometry N [3]: 2
Substance: caveolin-1 (natural protein)
